Drawing on article PMC12412656, this text covers Kd and Ki for 2 molecules.

Assay [1] deals with DLC1 TBS (465-489C) synthetic peptide, fluorescein-labelled. Briefly: fluorescence polarisation; R7R8 serially diluted (maximum 160 μM) into 0.5 μM fluorescein-labelled peptide; PBS with 1 mM TCEP and 0.02% Tween-20; room temperature; triplicate; one-site total binding model. In general terms: Fluorescence polarisation rises when a labelled molecule tumbles more slowly, as on binding a larger partner.

The target in assay [2] is RIAM TBS1 (4-30C) synthetic peptide, fluorescein-labelled. The description is as above.
Assay [3] deals with talin 1 R7R8 domain protein (mouse) (mouse). In words: fluorescence polarisation; competition: R7R8 (30 μM) pre-incubated with DLC1 TBS-F (1 μM) 20 min at room temperature, diluted 1:2 into unlabeled peptide at twofold increasing concentrations up to 160 μM; one-site Ki fit.

By Kd is commonly meant the free concentration of one partner at which half of the binding sites on the other are occupied at equilibrium, for simple one-to-one binding. Low readings indicate higher affinity, high ones lower affinity. “talin 1 R7R8 domain protein (mouse) (domain or fragment)”: the Kd in assay [1] stood at 4.92 µM; in assay [2], 9.21 µM. One may read the Ki as a dissociation constant, usually derived from enzyme kinetics or from competition with a known ligand. In turn, SEDIDQMFSTLLGEMDLLTQSLGVDTC [RIAM TBS1 (4-30C) synthetic peptide, unlabeled] had an inhibitory constant (Ki) in assay [3] of 90 µM.
